Experimental data from paper PMC3990709, “Structural Differences Explain Diverse Functions of Plasmodium Actins” (PLoS Pathogens, 2014).
Where “and” joins values, the source holds several entries; their conditions need not be identical. Equal entries are not always repeated.

Biological target: the molecule itself
Experiment: native gel or EMSA; native PAGE, ATP form, 0.1 mM CaCl2 and 0.5 mM ATP in the running buffer, 277 K; samples 6.7 µM, immediately and 48 h after purification (stored on ice)

B1: Plasmodium falciparum actin I (natural protein)
chain: not shown
notes: actin I of Plasmodium falciparum, PlasmoDB PF3D7_1246200; also called PfActI; Plasmodium actin I; source: Sf21 cells at 300 K, purified (size exclusion chromatography), alone or as a complex with G1
stoichiometry N: 4 and 12
